Measurements taken from patent publication US20100215656A1.

Experiments:
[1] = biological target: mesothelin (UniProt Q13421); test: cell-based or functional assay
[2] = biological target: CD22 (human) (UniProt P20273); test: cell-based or functional assay
Sequence of UniProt P20273 (P20273 20-847): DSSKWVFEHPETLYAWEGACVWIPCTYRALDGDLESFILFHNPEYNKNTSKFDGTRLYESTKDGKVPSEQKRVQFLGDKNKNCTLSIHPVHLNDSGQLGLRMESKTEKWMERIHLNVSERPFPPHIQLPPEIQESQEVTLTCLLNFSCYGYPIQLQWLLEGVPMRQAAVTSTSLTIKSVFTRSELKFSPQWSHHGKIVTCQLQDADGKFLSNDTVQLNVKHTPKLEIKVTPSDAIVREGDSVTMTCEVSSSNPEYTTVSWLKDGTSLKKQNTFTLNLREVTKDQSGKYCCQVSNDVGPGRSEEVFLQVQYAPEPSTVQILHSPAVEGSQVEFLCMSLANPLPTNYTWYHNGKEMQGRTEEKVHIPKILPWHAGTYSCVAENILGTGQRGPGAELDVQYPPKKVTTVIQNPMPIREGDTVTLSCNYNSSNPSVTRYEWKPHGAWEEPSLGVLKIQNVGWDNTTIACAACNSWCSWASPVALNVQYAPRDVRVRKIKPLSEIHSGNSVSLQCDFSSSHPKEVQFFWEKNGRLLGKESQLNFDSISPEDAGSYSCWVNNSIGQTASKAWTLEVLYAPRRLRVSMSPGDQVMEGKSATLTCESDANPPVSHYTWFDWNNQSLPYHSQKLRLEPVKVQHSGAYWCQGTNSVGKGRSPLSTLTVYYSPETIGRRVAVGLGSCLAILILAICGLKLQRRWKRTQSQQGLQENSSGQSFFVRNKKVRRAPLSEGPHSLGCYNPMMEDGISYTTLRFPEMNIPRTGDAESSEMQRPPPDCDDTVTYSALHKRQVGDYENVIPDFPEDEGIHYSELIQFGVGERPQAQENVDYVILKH

Sequence of UniProt Q13421 (Q13421 other isoform, or with tags, fused parts or gaps limits assumed): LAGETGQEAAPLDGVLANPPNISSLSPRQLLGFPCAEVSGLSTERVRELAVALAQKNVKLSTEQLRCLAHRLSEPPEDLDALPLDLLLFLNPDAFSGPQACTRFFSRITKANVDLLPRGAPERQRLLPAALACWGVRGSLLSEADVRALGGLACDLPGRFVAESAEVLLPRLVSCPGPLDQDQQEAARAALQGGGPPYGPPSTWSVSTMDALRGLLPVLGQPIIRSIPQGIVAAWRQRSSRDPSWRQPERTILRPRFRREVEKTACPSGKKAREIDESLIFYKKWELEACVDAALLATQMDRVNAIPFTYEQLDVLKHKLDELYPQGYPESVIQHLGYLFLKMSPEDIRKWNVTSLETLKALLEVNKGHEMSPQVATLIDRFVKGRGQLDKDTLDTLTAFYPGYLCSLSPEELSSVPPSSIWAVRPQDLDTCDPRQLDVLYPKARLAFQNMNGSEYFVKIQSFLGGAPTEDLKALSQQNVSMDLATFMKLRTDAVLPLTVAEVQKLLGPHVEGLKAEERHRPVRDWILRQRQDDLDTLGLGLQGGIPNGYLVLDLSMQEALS

Substance SS1P (antibody SS1 fused to PE38) has an IC50 (ng/ml), cytotoxicity on A431/K5 cells [1] of 0.2 ng/mL, an IC50 (ng/ml), cytotoxicity on A1847 cells [1] of 4.06 ng/mL and an IC50 (ng/ml), cytotoxicity on HAY cells [1] of 4.54 ng/mL. It also gave an IC50 (ng/ml), cytotoxicity on KB31 cells [1] of 5.15 ng/mL, an IC50 (ng/ml), cytotoxicity on L55 cells [1] of 4.77 ng/mL and an IC50 (ng/ml), cytotoxicity on OVCAR-8 cells [1] of 2.32 ng/mL.

“SS1-PE-LR (antibody SS1 fused to the PE used in HA22-LR)” gave an IC50 (ng/ml), cytotoxicity on A431/K5 cells [1] of 1.19 ng/mL, an IC50 (ng/ml), cytotoxicity on A1847 cells (*Incomplete cell killing) [1] of 4.24 ng/mL and an IC50 (ng/ml), cytotoxicity on HAY cells [1] of 1.22 ng/mL. The IC50 (ng/ml), cytotoxicity on KB31 cells (*Incomplete cell killing) [1] was greater than 1000 ng/mL, the IC50 (ng/ml), cytotoxicity on L55 cells [1] was 3.87 ng/mL and the IC50 (ng/ml), cytotoxicity on OVCAR-8 cells (*Incomplete cell killing) [1] was 4.29 ng/mL. The Relative Activity (against the PE38 immunotoxin) on A431/K5 cells [1] was 0.17, the Relative Activity (against the PE38 immunotoxin) on A1847 cells [1] was 0.96 and the Relative Activity (against the PE38 immunotoxin) on HAY cells [1] was 3.72. The Relative Activity (against the PE38 immunotoxin) on KB31 cells (fold decrease) [1] was greater than 200, the Relative Activity (against the PE38 immunotoxin) on L55 cells [1] was 1.23 and the Relative Activity (against the PE38 immunotoxin) on OVCAR-8 cells [1] was 0.54.

Substance “HA22-LR (anti-CD22 dsFv of HA22 fused to the 25-kDa lysosome-resistant PE fragment, PE25 / PE-LR)” has a Relative Activity (against HA22) on CA46 cells [2] of 1.15, a Relative Activity (against HA22) on Daudi cells [2] of 1.12 and a Relative Activity (against HA22) on KOPN-8 cells [2] of 0.22. For the same substance, the Relative Activity (against HA22) on Raji cells [2] was 0.49, the Relative Activity (against HA22) on Ramos cells [2] was 0.91 and the Relative Activity (against HA22) on WSU-CLL cells [2] was 2.12. The Relative Activity (against HA22), cell death, CLL #1 [2] was 16.2, the Relative Activity (against HA22), cell death, CLL #2 [2] was 7.65 and the Relative Activity (against HA22), cell death, HCL #2 [2] was 0.08. The Relative Activity (against HA22), cell death, HCL #3 [2] was 1.39, the Relative Activity (against HA22), protein synthesis, CLL #1 [2] was greater than 210 and the Relative Activity (against HA22), protein synthesis, CLL #2 [2] was greater than 16.8. It also gave a Relative Activity (against HA22), protein synthesis, CLL #3 [2] of 2.07, a Relative Activity (against HA22), protein synthesis, CLL #4 [2] of 51.8 and a Relative Activity (against HA22), protein synthesis, CLL #5 [2] of 2.16. The Relative Activity (against HA22), protein synthesis, HCL #1 [2] was 0.88, the Relative Activity (against HA22), protein synthesis, HCL #2 [2] was 0.14 and the Relative Activity (against HA22), protein synthesis, HCL #3 [2] was greater than 1.76. For the same substance, the inhibition of protein synthesis at 1 ng/ml, patient cells CLL #2 [2] was 55%.
